Experimental findings from article PMC11310207 are described below.

Holding throughout (assay): fluorescence polarisation
For assay [1], the target named is FAM-GGFLRRI, N-terminally FAM-labeled Dyn A (2–8).
The target of assay [2] is FAM-…, N-terminally FAM-labeled Dyn A (2–13).
Assay [3] deals with FAM-…, N-terminally FAM-labeled Dyn A (2–17).

Turning to “rNln (Met37–Ser704) E475A, C-terminal 6xHis-tag, catalytically inactive mutant (from UniProt P42676 37-704) (enzyme)”, the dissociation constant Kd in assay [1] amounted to 23.7 µM; in assay [2] it was 4.69 µM; in assay [3] it was 3.26 µM.
